This passage reports Kd results from patent publication US20190194322A1 (published 2019).

Test [1] addresses T1, Recombinant human VSIG3 Fc Chimera.
T1 chain: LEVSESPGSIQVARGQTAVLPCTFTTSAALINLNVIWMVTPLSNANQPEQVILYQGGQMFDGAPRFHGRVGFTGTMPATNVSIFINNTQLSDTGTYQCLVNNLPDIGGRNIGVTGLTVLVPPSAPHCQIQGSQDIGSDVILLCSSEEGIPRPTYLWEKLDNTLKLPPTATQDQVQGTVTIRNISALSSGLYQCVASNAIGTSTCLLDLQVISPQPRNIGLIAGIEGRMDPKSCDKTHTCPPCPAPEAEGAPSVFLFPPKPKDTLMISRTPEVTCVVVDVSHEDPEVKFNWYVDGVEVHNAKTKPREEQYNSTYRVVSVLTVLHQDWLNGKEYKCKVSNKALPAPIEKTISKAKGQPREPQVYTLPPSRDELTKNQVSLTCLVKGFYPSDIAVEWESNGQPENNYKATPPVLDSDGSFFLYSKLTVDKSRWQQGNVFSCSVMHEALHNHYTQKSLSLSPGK
Description: SPR (Biacore, single-cycle kinetics).

For test [2] the target is unchanged. As to the kind of experiment: SPR (Biacore), VSIG3-Fc immobilized, antibody as analyte, single-cycle kinetics.
The target is the same in test [3]. As to the kind of experiment: SPR (Biacore, single-cycle kinetics).
Test [4] addresses T2, VSIG3 His-fusion (human, UniProt Q5DX21 23-241, biotinylated (in the co-immunoprecipitation of FIG. 2)).
T2 chain: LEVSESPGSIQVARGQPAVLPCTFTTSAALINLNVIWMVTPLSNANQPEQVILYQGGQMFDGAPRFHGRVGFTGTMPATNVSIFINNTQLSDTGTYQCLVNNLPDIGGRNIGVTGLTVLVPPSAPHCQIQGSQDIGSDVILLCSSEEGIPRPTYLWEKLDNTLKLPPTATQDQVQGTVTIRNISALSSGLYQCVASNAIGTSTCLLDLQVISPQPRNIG
Description: SPR (Biacore), antibody captured on protein A/G/L, single-cycle kinetics.

In test [5] the target is T1, Recombinant human VSIG3 Fc Chimera. As to the kind of experiment: SPR (Biacore, single-cycle kinetics).
The target of test [6] is T2, VSIG3 His-fusion. As to the kind of experiment: SPR (Biacore), antibody captured on protein A/G/L, single-cycle kinetics.
Test [7] has as its target T1, Recombinant human VSIG3 Fc Chimera. Description: SPR (Biacore, single-cycle kinetics).

Read-outs that look alike come from different tables or passages of the source.

B1: mouse anti-human VSIG3 monoclonal antibody from clone #973422 (antibody, V domains shown)
VH: EVKLVESGGGLVQPGGSLKLSCAASGFTFSSYSMSWVRQTPEKRLEWVAYISNGGGSTYYPDTVKGRFTISRDNAKNTLYLQMSSLKSEDTAMYYCARHGDGYYPWFAYWGQGTLVTVSA
VL: QIVLSQSPAILSASPGEKVTMTCRASSSVSYIHWYQQKPGSSPKPWIYATSNLASGVPARFSGSGSGTSYSLTISRVEAEDAATYYCQQWSSNPFTFASGTKLEIKR
For the molecule B1, the equilibrium dissociation constant (Kd) in test [1] amounted to 1.5 nM.

B2: mouse anti-human VSIG3 monoclonal antibody from clone #973428 (antibody, V domains shown)
VH: EVQLVESGGDLVKPGGSLKLSCAASGFTFNSYGMSWVRQTPDKRLEWVAIISSGGSYTYYPDSVKGRFTISRDNAKNTLYLQMSSLKSEDTAMYYCARLSYYYGSSPYAMDYWGQGTSVTISS
VL: DIVLTQSPASLAVSLGQRATISCRASKSVSTSGYSYMHWYQQKPGQSPKLLIYLASNLESGVPARCSGSGSGTDFTLNIHPVEEEDAATYYCQHSRELPYTFGGGTKLEIKR
For B2, the Kd in test [2] was found to be 2.2 nM.

B3: mouse anti-human VSIG3 monoclonal antibody from clone #774213 (antibody, V domains shown)
VH: DVQLVESGGGLVQPGGSRKLSCAASGFTFSSFGMHWVRQAPEKGLEWVAYISSGSTTIYYADTVKGRFTISRDNPKNTLFLQMTSLRSEDTAMYYCTRGSYYRYDLYYAMDYWGQGTSVTVSS
VL: DIQMTQSPSSLSASLGGKVTITCKASQDIHKYVAWYQHKPGKGPRLLIHYTSTLQPGIPSRFSGSGSGSDYSFSISNLEPADIASYYCLQYDNLLFTFGGGTKLEIKR
B3: the results for the Kd (in test [3]; with VSIG3 His-fusion [4]) were 9.2 nM and 19 nM, respectively.

B4: mouse anti-human VSIG3 monoclonal antibody from clone #774226 (antibody, V domains shown)
VH: DVQLQESGPGLVKPSQSLSLICTVTGYSITSDYAWNWIRQFPGNKLEWMGYISYSGYTTYNPSLKSRISITRDTSKNQFFLQLNSVTTEDTATYYCAISGGSWFAYWGQGTLVTVSA
VL: DIQMTQSPASLSASVGETVNITCRTSENINSYLAWYQQKQGKSPQLLVYNAKTLAEGVPSRFSGSGSGTQFSLKINSLQPEDFGSYYCQHHYGTPPTFGGGTKLEIKR
B4: the Kd in test [5] was determined as 65 nM; with VSIG3 His-fusion [6] it was 42 nM.

B5: mouse anti-human VSIG3 monoclonal antibody from clone #774221 (antibody, V domains shown)
VH: DVQLQESGPGLVKPSQSLSLTCTVTGYSITSDYAWNWIRQFPGNKLEWMGYISYSGYAIYNPSLKSRISITRDTSKNHFFLQLNSVTTEDTATYYCARSGGSWFAYWGQGTLVTVSA
VL: DIQMTQSPASLSASVGETVTITCRASENINSYLAWYQQKQGKSPQLLVYNAKTLAEGVPSRFSGSGSGTQFSLKINSLQPEDFGSYYCQHHYGTPPTFGGGTKLEIKR
Consider B5, for which the Kd in test [5] was 21 nM; in the test with VSIG3 His-fusion [6] it was 25 nM.

B6: mouse anti-human VSIG3 monoclonal antibody from clone #973401 (antibody, V domains shown)
VH: QVQLQQSAAELARPGASVKMSCKASGYTFATYTIHWVKQRPGQGLEWIGYINPSSGYTEYNQKFKDKTTLTADKSSSTAYMQLSSLTSEDSAVYYCARREVYGSGSMDYWGQGTSVTVSS
VL: QIVLTQSPALMSASPGEKVTMTCSASSSVSFMYWYHQKPRSSPKPWIYLTSNLASGVPARFSGSGSGTSYSLTISSMEAEDAATYYCQQWSSNPLTFGAGTKLELKR
In the case of B6, in test [7], the Kd came out at 2.2 nM.
